{
  "source": "paper PMC11979331",
  "about": "“RcSRR1 interferes with the RcCSN5B-mediated deneddylation of RcCRL4 to modulate RcCO proteolysis and prevent rose flowering under red light”",
  "biological_target": "T1, RcFRSL3 (UniProt A0A2P6RRT4 1-153)",
  "T1 sequence": "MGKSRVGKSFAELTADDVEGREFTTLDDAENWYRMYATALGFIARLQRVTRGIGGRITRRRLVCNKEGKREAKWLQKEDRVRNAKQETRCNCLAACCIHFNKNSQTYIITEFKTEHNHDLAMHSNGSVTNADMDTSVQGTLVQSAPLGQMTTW",
  "assay": "EMSA; Light Shift Chemiluminescent EMSA kit (buffer per manufacturer), about 2 ug protein, 24 C, 20 min; 6% native PAGE in 0.5x TBE; pH and salt not given",
  "settings": "protein: recombinant; tags: GST (pGEX4T-1) per construct section; called His-RcFRSL3 in EMSA section; label: 3' biotin on both strands; blunt",
  "data": [
    {"binder": "RcSRR1 promoter G-box probe (dsDNA) DNA 1: TTCAGGTACCGTATTCACGTTTTTCGAAGTTCAGGTACTA DNA 2: TAGTACCTGAACTTCGAAAAACGTGAATACGGTACCTGAA", "values": [
      {"measurement": "binding result", "value": "binds"}
    ]}
  ]
}
